Laboratory results taken from publication PMC5911420 (DNA repair, 2018).
Like-named read-outs stand apart in the source and are kept apart here.

Key:
Assay in all cases: SEC-MALS
[1] = biological target: T1, full-length NEIL1 DNA glycosylase, His-tagged (human, UniProt Q96FI4 1-390)
[2] = biological target: T1, full-length NEIL1 DNA glycosylase, …; remark: listed apart in the source
SEC-MALS = biological target: the molecule itself

T1 sequence (Q96FI4 whole entry): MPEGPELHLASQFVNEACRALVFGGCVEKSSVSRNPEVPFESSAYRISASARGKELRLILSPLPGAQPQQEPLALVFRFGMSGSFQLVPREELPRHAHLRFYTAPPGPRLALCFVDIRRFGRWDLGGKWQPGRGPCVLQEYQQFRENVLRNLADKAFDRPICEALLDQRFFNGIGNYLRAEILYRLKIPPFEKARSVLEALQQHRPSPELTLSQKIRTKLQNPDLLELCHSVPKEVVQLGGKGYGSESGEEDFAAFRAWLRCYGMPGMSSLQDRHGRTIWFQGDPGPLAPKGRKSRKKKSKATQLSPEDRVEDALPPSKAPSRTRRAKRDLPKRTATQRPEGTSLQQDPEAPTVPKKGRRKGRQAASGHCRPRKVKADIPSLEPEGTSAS

stoichiometry N [1]: 1 mtSSB tetramer per NEIL1 (with one DNA)
stoichiometry N [2]: 1 mtSSB monomer per NEIL1
B1: human mitochondrial single-stranded DNA binding protein, purified recombinant (natural protein, UniProt Q04837 17-148, looked up)
chain: ESETTTSLVLERSLNRVHLLGRVGQDPVLRQVEGKNPVTIFSLATNEMWRSGDSEVYQLGDVSQKTTWHRISVFRPGLRDVAYQYVKKGSRIYLEGKIDYGEYMDKNNVRRQATTIIADNIIFLSDQTKEKE
stoichiometry N (SEC-MALS): 4
